B1: anti-IL-6 antibody, heavy chain T63W, G66D / light chain M32L, M50D, N52S, M88Q (antibody, IgG1, V domains shown)
VH: EVQLVESGGGLVQPGGSLRLSCAASGFTFSPFAMSWVRQAPGKGLEWVAKISPGGSWTYYSDWVTDRFTFSLDTSKSTAYLQMNSLRAEDTAVYYCARQLWGYYALDIWGQGTLVTVSS
VL: DIQLTQSPSSLSASVGDRVTITCSASISVSYLYWYQQKPGKAPKLLIYDDSSLASGVPSRFSGSGSGTDFTLTISSLQPEDFATYYCQQWSGYPYTFGQGTKVEIK
notes: Full IgG1 (Expi293); VL = variant III
B2: anti-IL-6 antibody, heavy chain T65G, G66D / light chain M32L, M50D, N52S, M88Q (antibody, IgG1, V domains shown)
VH: B1 VH with W63T, T65G
VL: B1 VL
notes: as for B1
B3: anti-IL-6 antibody, heavy chain T65Y, G66D / light chain M32L, M50D, N52S, M88Q (antibody, IgG1, V domains shown)
VH: B1 VH with W63T, T65Y
VL: B1 VL
notes: as for B1
B4: anti-IL-6 antibody, heavy chain T65V, G66D / light chain M32L, M50D, N52S, M88Q (antibody, IgG1, V domains shown)
VH: B1 VH with W63T, T65V
VL: B1 VL
notes: as for B1
B5: anti-IL-6 antibody, heavy chain T65H, G66D / light chain M32L, M50D, N52S, M88Q (antibody, IgG1, V domains shown)
VH: B1 VH with W63T, T65H
VL: B1 VL
notes: as for B1
B6: anti-IL-6 antibody, heavy chain T65P, G66D / light chain M32L, M50D, N52S, M88Q (antibody, IgG1, V domains shown)
VH: B1 VH with W63T, T65P
VL: B1 VL
notes: as for B1
B7: anti-IL-6 antibody, heavy chain T63Y, G66D / light chain M32L, M50D, N52S, M88Q (antibody, IgG1, V domains shown)
VH: B1 VH with W63Y
VL: B1 VL
notes: as for B1
B8: anti-IL-6 antibody, heavy chain T65R, G66D / light chain M32L, M50D, N52S, M88Q (antibody, IgG1, V domains shown)
VH: B1 VH with W63T, T65R
VL: B1 VL
notes: as for B1
B9: anti-IL-6 antibody, heavy chain T65W, G66D / light chain M32L, M50D, N52S, M88Q (antibody, IgG1, V domains shown)
VH: B1 VH with W63T, T65W
VL: B1 VL
notes: as for B1
B10: anti-IL-6 antibody, heavy chain T65F, G66D / light chain M32L, M50D, N52S, M88Q (antibody, IgG1, V domains shown)
VH: B1 VH with W63T, T65F
VL: B1 VL
notes: as for B1
B11: anti-IL-6 antibody, heavy chain T65E, G66D / light chain M32L, M50D, N52S, M88Q (antibody, IgG1, V domains shown)
VH: B1 VH with W63T, T65E
VL: B1 VL
notes: as for B1
B12: anti-IL-6 antibody, heavy chain T65S, G66D / light chain M32L, M50D, N52S, M88Q (antibody, IgG1, V domains shown)
VH: B1 VH with W63T, T65S
VL: B1 VL
notes: as for B1
B13: anti-IL-6 antibody, heavy chain T65K, G66D / light chain M32L, M50D, N52S, M88Q (antibody, IgG1, V domains shown)
VH: B1 VH with W63T, T65K
VL: B1 VL
notes: as for B1
B14: anti-IL-6 antibody, heavy chain T65A, G66D / light chain M32L, M50D, N52S, M88Q (antibody, IgG1, V domains shown)
VH: B1 VH with W63T, T65A
VL: B1 VL
notes: as for B1
B15: anti-IL-6 antibody, heavy chain T65L, G66D / light chain M32L, M50D, N52S, M88Q (antibody, IgG1, V domains shown)
VH: B1 VH with W63T, T65L
VL: B1 VL
notes: as for B1
B16: anti-IL-6 antibody, heavy chain T65D, G66D / light chain M32L, M50D, N52S, M88Q (antibody, IgG1, V domains shown)
VH: B1 VH with W63T, T65D
VL: B1 VL
notes: as for B1
B17: anti-IL-6 antibody, heavy chain I51E, G66D / light chain M32L, M50D, N52S, M88Q (antibody, human IgG1, V domains shown)
VH: B1 VH with I51E, W63T
VL: B1 VL
notes: Human IgG1
B18: anti-IL-6 antibody, heavy chain I51F, G66D / light chain M32L, M50D, N52S, M88Q (antibody, human IgG1, V domains shown)
VH: B1 VH with I51F, W63T
VL: B1 VL
notes: Human IgG1
B19: anti-IL-6 antibody, heavy chain I51G, G66D / light chain M32L, M50D, N52S, M88Q (antibody, human IgG1, V domains shown)
VH: B1 VH with I51G, W63T
VL: B1 VL
notes: Human IgG1
B20: anti-IL-6 antibody, heavy chain I51L, G66D / light chain M32L, M50D, N52S, M88Q (antibody, human IgG1, V domains shown)
VH: B1 VH with I51L, W63T
VL: B1 VL
notes: Human IgG1
B21: anti-IL-6 antibody, heavy chain I51D, G66D / light chain M32L, M50D, N52S, M88Q (antibody, human IgG1, V domains shown)
VH: B1 VH with I51D, W63T
VL: B1 VL
notes: Human IgG1
B22: anti-IL-6 antibody, heavy chain I51A, G66D / light chain M32L, M50D, N52S, M88Q (antibody, human IgG1, V domains shown)
VH: B1 VH with I51A, W63T
VL: B1 VL
notes: Human IgG1
B23: anti-IL-6 antibody, heavy chain I51H, G66D / light chain M32L, M50D, N52S, M88Q (antibody, human IgG1, V domains shown)
VH: B1 VH with I51H, W63T
VL: B1 VL
notes: Human IgG1
B24: anti-IL-6 antibody, heavy chain I51K, G66D / light chain M32L, M50D, N52S, M88Q (antibody, human IgG1, V domains shown)
VH: B1 VH with I51K, W63T
VL: B1 VL
notes: Human IgG1

Substitutions are numbered along the chain they refer to. Names and notes keep the numbering of the source.

One assay concerns the target T1, human IL-6 (human, UniProt P05231 30-212).
T1 construct: IL-6 flowed over captured antibodies
In words: SPR Biacore, supernatant Ab on Protein A chip, 37 C. As for the experimental part: (§1) Antibodies were captured on a Protein A chip (GE) by injecting 1:20 cell supernatant dilutions at 10 μL/min for 60 seconds. […] The sensor chip was regenerated by a 60 seconds injection of 10 mM Glycine pH 1.7 at the flow rate of 50 μL/min. […] For this setup, 1 μg/mL of purified antibody was injected over a Protein A chip at 10 μL/min for 25 seconds. […] The sensor chip was regenerated by a 60 seconds injection of 10 mM Glycine pH 1.7 at flow rate of 50 μL/min. Data analysis for supernatant and purified samples were performed using BIAevaluation software (GE). All sensorgrams were double reference subtracted and fit using a 1:1 Langmuir binding model.
T1 sequence (P05231 30-212 limits assumed): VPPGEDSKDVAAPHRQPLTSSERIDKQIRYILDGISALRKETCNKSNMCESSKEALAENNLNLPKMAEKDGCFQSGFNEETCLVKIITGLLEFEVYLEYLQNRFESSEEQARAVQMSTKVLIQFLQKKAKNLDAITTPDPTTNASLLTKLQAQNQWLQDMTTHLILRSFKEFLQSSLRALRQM
For B1, the Kd amounted to 0.286 nM, the koff worked out at 0.000449 s⁻¹ and the kon came out at 1.57e+06 M⁻¹ s⁻¹.

Regarding B2, the Kd came out at 0.311 nM, the koff was found to be 0.000477 s⁻¹ and the kon amounted to 1.53e+06 M⁻¹ s⁻¹.

In turn, B3 displayed a Kd of 0.237 nM, a koff of 0.000367 s⁻¹ and a kon of 1.55e+06 M⁻¹ s⁻¹.

B4: binding was put at a Kd of 0.281 nM, the koff stood at 0.000551 s⁻¹ and the kon came out at 1.96e+06 M⁻¹ s⁻¹.

In turn, B5 came in with a Kd of 0.297 nM, a koff of 0.000423 s⁻¹ and a kon of 1.43e+06 M⁻¹ s⁻¹.

The molecule B6 returned a Kd of 0.601 nM, a dissociation rate constant (koff) of 0.00108 s⁻¹ and a kon of 1.79e+06 M⁻¹ s⁻¹.

With B7, the affinity, expressed as Kd, was 0.241 nM; the koff was found to be 0.000459 s⁻¹; the kon was 1.91e+06 M⁻¹ s⁻¹.

Molecule B8 yielded a Kd of 0.327 nM, a koff of 0.000532 s⁻¹ and an association rate constant (kon) of 1.63e+06 M⁻¹ s⁻¹.

B9 gave a Kd of 0.322 nM, a dissociation rate constant (koff) of 0.000384 s⁻¹ and a kon of 1.19e+06 M⁻¹ s⁻¹.

For B10, the Kd turned out to be 0.291 nM, the off-rate constant (koff) is 0.000391 s⁻¹ and the kon was found to be 1.34e+06 M⁻¹ s⁻¹.

For B11, the Kd turned out to be 0.279 nM, the koff amounted to 0.000474 s⁻¹ and the kon amounted to 1.7e+06 M⁻¹ s⁻¹.

B12: the Kd stood at 0.31 nM, the koff is 0.000441 s⁻¹ and the on-rate (kon) is 1.42e+06 M⁻¹ s⁻¹.

For B13, the Kd came to 0.356 nM, the koff was found to be 0.000579 s⁻¹ and the kon was determined as 1.63e+06 M⁻¹ s⁻¹.

Molecule B14 showed a Kd of 0.239 nM, a koff of 0.000542 s⁻¹ and a kon of 2.27e+06 M⁻¹ s⁻¹.

In turn, B15 registered a dissociation constant Kd of 0.293 nM, a koff of 0.000446 s⁻¹ and a kon of 1.53e+06 M⁻¹ s⁻¹.

In turn, B16 gave a Kd of 0.465 nM, a koff of 0.00048 s⁻¹ and a kon of 1.03e+06 M⁻¹ s⁻¹.

A further assay concerns the target human IL-6 (human, UniProt P05231 30-212). As to the kind of experiment: SPR (Biacore), supernatant antibody on Protein A chip, IL-6 flowed, 37 C. How it is done:
as §1
In general terms: SPR reads the build-up and loss of mass on a sensor chip optically.
Target sequence in this assay (P05231 30-212 limits assumed): as above
B17 had a Kd of 2.14 nM, an off-rate (koff) of 0.00196 s⁻¹ and a kon of 914000 M⁻¹ s⁻¹.

Regarding B18, binding was characterised by a dissociation constant (Kd) of 4.45 nM, the koff is 0.00611 s⁻¹ and the kon was found to be 1.37e+06 M⁻¹ s⁻¹.

In turn, B19 showed a Kd of 0.652 nM, a koff of 0.000912 s⁻¹ and a kon of 1.4e+06 M⁻¹ s⁻¹.

For the molecule B20, the Kd is 0.98 nM, the koff stood at 0.00161 s⁻¹ and the association rate constant (kon) stood at 1.64e+06 M⁻¹ s⁻¹.

As for B21, the equilibrium dissociation constant (Kd) came out at 9.58 nM, the koff came to 0.00799 s⁻¹ and the kon is 834000 M⁻¹ s⁻¹.

For B22, the Kd is 0.559 nM, the koff was determined as 0.000899 s⁻¹ and the kon worked out at 1.61e+06 M⁻¹ s⁻¹.

B23 yielded a Kd of 0.5 nM, a dissociation rate constant (koff) of 0.00104 s⁻¹ and a kon of 2.07e+06 M⁻¹ s⁻¹.

On to B24, for which the affinity, expressed as Kd, was 0.349 nM; the koff was 0.000601 s⁻¹; the kon came to 1.72e+06 M⁻¹ s⁻¹.

A word on the Kd: it is the concentration at which binding is half-saturated. By koff is commonly meant a measure of how fast the partners let go of each other. A low value points to a long-lived complex. What is called kon is the second-order rate constant of association. Low readings indicate slow association, high ones fast association.

The values are drawn from patent US20240209076A1 (KODIAK SCIENCES, published 2024).
